Experimental data published in patent US20200239585A1, “MODULATING THE IMMUNE RESPONSE USING ANTIBODY-DRUG CONJUGATES” (Seattle Genetics, Inc., priority 2017, published 2020).

Legend:
[1] = test system: efflux pump activity of T cell subsets; experiment: rhodamine 123 efflux assay; assay type: cell-based, human; conditions: 37° C., 5-hour time-course; FIG. 9D
Description: Sensitivity of cells to many chemotherapies, including MMAE, is influenced by cell-intrinsic drug efflux activity. T cell subsets were evaluated for relative efflux pump activity using a rhodamine 123 efflux assay, following manufacturer's protocol (Chemicon International, Multidrug Resistance Direct Dye Efflux Assay). Enriched T cell populations were loaded with rhodamine 123, incubated in a 37° C. water bath, and were measured for loss of fluorescence over a 5-hour time-course by flow cytometry.

[2] = test system: CD30+ cell lines; conditions: cited from earlier work
[3] = test system: Hodgkin disease xenograft; conditions: SCID mouse xenograft models of Hodgkin disease; cited from earlier work
[4] = test system: inducible T regulatory cells (iTregs); experiment: iTreg viability on in vitro proliferation with a titration of BV or control IgG-MMAE; assay type: cell-based, human; conditions: CD3/CD28 beads, 4-5 days
Description: CD4^+ T cells, isolated from healthy donor PBMC (Astarte Biologics, Bothell Wash.) were used to generate inducible T regulatory cells (iTregs). iTreg differentiation was performed over 1-2 weeks in 6-well tissue culture plates at 37° C. Cells were incubated with CD3/CD28 MACS iBead particles (Miltenyi biotec) at a 1:32 bead/cell ratio, in 2-3 ml of X-VIVO 15 media (Lonza) containing 1L-2 (50 ng/ml), TGFβ (50 ng/ml), and a 1:100 dilution of Lipid-Mixture 1 (Sigma-Aldrich). iTregs were evaluated for FoxP3 and CD30 expression by FACS analysis on an Attune NXT flow cytometer (Life Technologies). Following differentiation, individual donor iTreg populations ranged between 20-80% FoxP3^+ and 40-70% CD30^+.
To evaluate the effect of brentuximab vedotin (BV), and anti-CD30 antibody drug-conjugate on iTreg viability, cells were driven to proliferate in vitro in the presence of BV or control antibody drug-conjugate (IgG-MMAE). Briefly, iTregs were mixed with CD3/CD28 beads (8:1) in RPMI 10% FCS and were distributed at approximately 2.0×10^4 cells/well into a 96-well round-bottom plate. A titration of BV or control IgG-MMAE was added to replicate wells at the concentrations listed, for a final volume of 200 μl, and plates were incubated at 37° C. for 4-5 days. […]

[5] = test system: iTregs and CD8+ T cells; experiment: iTreg / CD8+ T cell co-culture suppression assay; assay type: cell-based, human; conditions: iTregs:CD8+ T cells 1:2, CD3/CD28 beads, four days, increasing concentrations, two donors; FIG. 2C, 2D
Description: As shown in FIG. 2A and FIG. 2B, increasing the iTreg/CD8^+ T cell ratio, for each donor, further abrogated T cell expansion, confirming suppressive function. To evaluate the effect of BV on iTreg suppression in vitro, co-culture suppression assays were performed. iTregs and CD8^+ T cells were mixed at a 1:2 ratio and combined with CD3/CD28 beads. Replicate wells were treated with a titration of BV or control IgG-MMAE. After four days of culture, viable iTregs and CD8^+ T cells were quantified by flow cytometry.

[6] = test system: CD25hi CD127lo T regulatory cells; experiment: activated peripheral blood Treg depletion in vitro; assay type: cell-based, human; conditions: four separate donors, CD3/CD28 beads+IL-2, 4-5 days; FIG. 3A
Description: (§1) CD25^hi CD127^lo T regulatory cells or CD8^+ T cells, enriched from peripheral blood derived leukoreduction system (LRS) chambers, were plated with CD3/CD28 beads+IL-2 in round-bottom 96-well tissue culture plates for 4-5 days with a titration of BV or control IgG-MMAE. On the final day of the assay, cells were stained as described above (viability dye and αCD30-PE antibody) and evaluated by flow cytometry.

[7] = test system: CD8+ T cells; experiment: activated peripheral blood CD8+ T cell depletion in vitro; assay type: cell-based, human; conditions: up to 10 μg/ml of BV, CD3/CD28 beads+IL-2, 4-5 days; FIG. 3B
Description: as §1

[8] = test system: human T regulatory cells and CD8+ T cells; experiment: xeno-GVHD model, human T cell subtypes in spleen; assay type: in vivo, NSG mice
[9] = test system: peripheral blood T cell subsets; experiment: immunophenotyping of peripheral blood in classical Hodgkin lymphoma patients after BV; assay type: in vivo, human
Excerpt: The effects of BV on circulating immune cells has not previously been fully elucidated. Sixty-two patients adult patients with classical Hodgkin lymphoma (cHL) that had relapsed or was refractory to frontline chemotherapy were enrolled in a study to evaluate treatment with BV. Patients were excluded if they previously received prior salvage therapy, including salvage radiotherapy, for refractory cHL; BV or any immuno-oncology therapy affecting the PD-1, CTLA4, or CD137 pathways; and/or allogeneic or autologous stem cell transplant (ASCT). BV was administered to the patients at a dose of 1.8 mg/kg on Day 1 and the patients were assessed on Day 8. Immunophenotyping of peripheral blood by flow cytometry was performed by Q2 Solutions on heparinized whole blood. Cell pellets, resulting from plasma banking, were sent to Adaptive for T Cell Receptor β (TCRβ) sequencing. Peripheral blood mononuclear cells were isolated from CPT tubes, frozen, and then analyzed in batches by Caprion using their intracellular cytokine staining platform following peptide stimulation.

Molecule: rhodamine 123 [rhodamine-123]
- clearance of intracellular rhodamine-123 in CD8+ T cells [1]: rapid clearance
- rhodamine-123 efflux in T regulatory cells among T cell subsets [1]: slowest

Molecule: cAC10: chimeric IgG1 monoclonal antibody that specifically binds CD30
- growth of CD30+ cell lines in vitro [2]: induces growth arrest
- antitumor activity [3]: pronounced antitumor activity

B1: brentuximab vedotin (conjugate)
VH: QIQLQQSGPEVVKPGASVKISCKASGYTFTDYYITWVKQKPGQGLEWIGWIYPGSGNTKYNEKFKGKATLTVDTSSSTAFMQLSSLTSEDTAVYFCANYGNYWFAYWGQGTQVTVSA
VL: DIVLTQSPASLAVSLGQRATISCKASQSVDFDGDSYMNWYQQKPGQPPKVLIYAASNLESGIPARFSGSGSGTDFTLNIHPVEEEDAATYYCQQSNEDPWTFGGGTKLEIK
- numbers of CD30+ iTregs ([4]; FIG. 1B): enhanced depletion
- total viable iTreg numbers ([4]; five separate donors, FIG. 1A): dose-dependent reduction
- CD8+ T cell accumulation in co-culture [5]: augmented
- viable iTregs in co-culture [5]: selectively reduced
- viable CD30+ Treg numbers [6]: dose-dependent reduction
- depletion of CD30+ CD8+ T cells [7]: did not deplete
- human T regulatory cells in the spleen ([8]; single i.p. 3 mg/kg on day 5, spleens on day 12, compared to PBS alone, FIG. 4A): significantly reduced
- splenic CD8+ T cells ([8]; single i.p. 3 mg/kg on day 5, spleens on day 12, FIG. 4B): unaffected by BV treatment with a trend toward increased numbers
- CD8+ T cell/Treg ratio in vivo ([8]; single i.p. 3 mg/kg on day 5, spleens on day 12, FIG. 4C): increased
- reduction of CD30+ regulatory T cells compared to reduction of other CD30+ T helper cells ([9]; 1.8 mg/kg on Day 1, assessed on Day 8): more significantly
- T helper cell subset populations including regulatory T cells ([9]; 1.8 mg/kg on Day 1, assessed on Day 8, peripheral blood, FIG. 5): reduction
- number of CD30-expressing regulatory T cells in the peripheral blood ([9]; 1.8 mg/kg on Day 1, assessed on Day 8, FIG. 7): significantly reduced
- number of CD30+ T regulatory cells as compared to CD30− T regulatory cells ([9]; single treatment, versus baseline, FIG. 7): reduced
